T1: SSB (UniProt P05455 1-408)
T1 sequence: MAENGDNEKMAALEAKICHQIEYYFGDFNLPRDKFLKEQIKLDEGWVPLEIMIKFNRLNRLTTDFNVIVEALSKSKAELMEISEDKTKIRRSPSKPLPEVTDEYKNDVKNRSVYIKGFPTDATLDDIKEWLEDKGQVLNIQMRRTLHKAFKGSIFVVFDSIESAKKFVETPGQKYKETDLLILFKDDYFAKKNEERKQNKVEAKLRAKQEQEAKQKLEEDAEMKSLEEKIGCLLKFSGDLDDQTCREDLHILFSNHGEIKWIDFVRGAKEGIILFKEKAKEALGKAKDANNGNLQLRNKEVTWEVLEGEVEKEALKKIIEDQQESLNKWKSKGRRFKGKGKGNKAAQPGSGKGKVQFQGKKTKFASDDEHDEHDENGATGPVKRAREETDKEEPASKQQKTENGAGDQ

T2: Scl-70 (UniProt P11387 1-765)
T2 sequence: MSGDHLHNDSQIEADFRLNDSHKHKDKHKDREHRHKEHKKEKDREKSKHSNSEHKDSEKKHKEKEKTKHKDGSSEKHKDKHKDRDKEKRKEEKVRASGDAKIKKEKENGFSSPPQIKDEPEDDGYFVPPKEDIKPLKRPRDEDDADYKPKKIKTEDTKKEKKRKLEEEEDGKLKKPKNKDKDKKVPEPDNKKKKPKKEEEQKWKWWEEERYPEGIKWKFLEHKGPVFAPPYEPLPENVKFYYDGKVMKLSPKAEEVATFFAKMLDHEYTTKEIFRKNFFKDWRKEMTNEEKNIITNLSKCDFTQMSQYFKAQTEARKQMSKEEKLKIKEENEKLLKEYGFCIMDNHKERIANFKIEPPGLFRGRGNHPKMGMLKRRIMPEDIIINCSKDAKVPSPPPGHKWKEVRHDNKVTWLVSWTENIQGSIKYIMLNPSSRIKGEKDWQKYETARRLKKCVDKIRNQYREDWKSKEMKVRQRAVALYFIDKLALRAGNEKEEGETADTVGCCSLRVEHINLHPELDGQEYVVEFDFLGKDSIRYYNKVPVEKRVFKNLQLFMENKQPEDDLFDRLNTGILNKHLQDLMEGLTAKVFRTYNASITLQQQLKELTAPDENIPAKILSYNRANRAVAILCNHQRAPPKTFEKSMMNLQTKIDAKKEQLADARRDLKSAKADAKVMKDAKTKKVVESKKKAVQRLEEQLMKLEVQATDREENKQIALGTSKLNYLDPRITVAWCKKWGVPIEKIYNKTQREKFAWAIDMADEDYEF

T3: Jo-1 (UniProt P12081 1-509)
T3 sequence: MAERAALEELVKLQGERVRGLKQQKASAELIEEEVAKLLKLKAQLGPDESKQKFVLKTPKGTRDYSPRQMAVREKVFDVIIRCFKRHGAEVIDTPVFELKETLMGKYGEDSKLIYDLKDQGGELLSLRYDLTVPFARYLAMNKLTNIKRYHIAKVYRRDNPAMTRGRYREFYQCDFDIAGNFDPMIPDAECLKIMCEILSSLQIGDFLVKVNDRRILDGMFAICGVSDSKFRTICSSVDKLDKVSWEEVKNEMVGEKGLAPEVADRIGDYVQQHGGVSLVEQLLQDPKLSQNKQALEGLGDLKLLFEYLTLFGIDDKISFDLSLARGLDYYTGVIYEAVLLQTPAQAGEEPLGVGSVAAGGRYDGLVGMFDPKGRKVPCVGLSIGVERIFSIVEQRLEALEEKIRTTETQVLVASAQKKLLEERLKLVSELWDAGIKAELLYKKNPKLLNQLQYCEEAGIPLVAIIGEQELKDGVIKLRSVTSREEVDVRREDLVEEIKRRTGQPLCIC

B1: CH241 (antibody, V domains shown)
VH: QVQLVQSGAAVKKPGASVRVSCKASGYTFTSSHIHWVRQAPGQGPEWMGMIDPSVGRPTTAGKFQGRVTMTRDRYTSTAYMDLSSLRSEDTAVYYCARSVETTGSLLYFDYWGQGTLITVSS
VL: EIVLTQSPATLSVSPGERATLSCRASQSVRSNIAWYQQKPGQAPRLLIHGASTRATGIPGRFSGSGSGPEFTLAISSVQSEDFAVYYCQQYNDWWTFGQGTKVEIK
B2: CH235 (antibody, V domains shown)
VH: QVQLVQSGAEVKKPGASVTVSCQASGYTFTNYYVHWVRQAPGQGLQLMGWIDPSWGRTNYAQNFQGRITMTRDTSTSTVYMEMRSLRSEDTAVYYCARNVATEGSLLHYDYWGQGTLVTVSA
VL: EIVLTQSPATLSVSPGERATLSCRASQSVRSNLAWYQQRPGQAPRLLIYGTSTRATGVPARFSGRGSGTEFTLAISSMQSEDFAVYLCLQYNNWWTFGQGTKVEIK
notes: also called CH235_4A
B3: CH493 (antibody, V domains shown)
VH: QVRLLQYGGGVKRPGASMTISCVASGYNFNDYYIHWVRQAPGQGLELMGWIDPSGGRTDYAGAFGDRVSMYRDKSMNTLYMDLRSLRSGDTAMYYCVRNVGTAGSLLHYDHWGLGVMVTVSS
VL: EIVLTQSPATLSVSPGERVTLSCRASQSVRNNLAWYRQKRGQAPRLLIYGASTRATGIPARFSGSGSGTEFTLTISSMQSEDFAVYYCQQYNNWWTFGQGTKVEIK
notes: also called CH235.9; DH493
B4: CH557 (antibody, V domains shown)
VH: QVRLAQYGGGVKRLGATMTLSCVASGYTFNDYYIHWVRQAPGQGFELLGYIDPANGRPDYAGALRERLSFYRDKSMETLYMDLRSLRYDDTAMYYCVRNVGTAGSLLHYDHWGSGSPVIVSS
VL: EIVLTQSPATLSASPGERVTLTCRASRSVRNNVAWYQHKGGQSPRLLIYDASTRAAGVPARFSGSASGTEFTLAISNLESEDFTVYFCLQYNNWWTFGQGTRVDIK
notes: also called CH235.12; CH557_4A/293i

What follows are binders tested against CH0505_CON D7gp120/293i (assay: ELISA).

Binder	LogAUC
B1	13.3
B2	9.73
B3	8.67
B4	8.39

The binders below were run against T4, CH505w020.14D8gp120 (assay: ELISA).
T4 construct: also called CH505w20.14 gp120

Binder	LogAUC
B1	13.1
B2	9.91
B3	8.15
B4	8.33

The binders below were run against T5, CH505w030.20D8gp120/293F (assay: ELISA).
T5 construct: also called CH505w30.20 gp120

Binder	LogAUC
B1	8.03
B2	8.33
B3	8.09
B4	8.59

What follows are binders tested against T6, CH505.w30.12D8gp120 (assay: ELISA).
T6 construct: also called CH505w30.12 gp120

Binder	LogAUC
B1	9.6
B2	7.28
B3	3.17
B4	2.37

These binders were tested against CH505w136.B18D8gp120 (assay: ELISA).

Binder	LogAUC
B1	0.89
B2	7.53
B3	5.76
B4	8.31

Each binder was assayed against CH505.M5D8gp120293F (assay: ELISA).

Binder	LogAUC
B1	14.5
B2	11.4
B3	9.26
B4	8.2

Each binder was assayed against CH505.M10D8gp120 (assay: ELISA).

Binder	LogAUC
B1	14.4
B2	10.6
B3	10.2
B4	7.63

The binders below were run against CH505.M11D8gp120/293F (assay: ELISA).

Binder	LogAUC
B1	9.68
B2	7.59
B3	8.26
B4	7.71

These binders were tested against CH505.M19D8gp120 (assay: ELISA).

Binder	LogAUC
B1	10.4
B2	7.13
B3	5.95
B4	4.61

These binders were tested against CH505.M21D8gp120/293F (assay: ELISA).

Binder	LogAUC
B1	4.82
B2	0
B3	1.13
B4	0.19

These binders were tested against CH505.M9D8gp120/293F (assay: ELISA).

Binder	LogAUC
B1	0
B2	0
B3	1.31
B4	0.38

These binders were tested against CH505.M7D8gp120/293F (assay: ELISA).

Binder	LogAUC
B1	0
B2	0
B3	0.8
B4	0.69

These binders were tested against T7, CH505.TF mutant gp120 M6 (HIV-1) (assay: ELISA).
T7 construct: domain: gp120

Binder	LogAUC
B1	13.2
B2	9.46
B3	8.11
B4	8.21

What follows are binders tested against T8, CH505.TF mutant gp120 M8 (HIV-1) (assay: ELISA).
T8 construct: domain: gp120

Binder	LogAUC
B1	2.18
B2	0
B3	4.36
B4	1.14

These binders were tested against T9, CH505.TF mutant gp120 M20 (HIV-1) (assay: ELISA).
T9 construct: domain: gp120

Binder	LogAUC
B1	2.15
B2	0
B3	1.04
B4	0

What follows are binders tested against T10, SSA (assay: AtheNA, Ab 6.25 ug/ml).
T10 construct: also called SSA (Ro)

Binder	AtheNA signal
B1	15 relative luminescence units
B2	12 relative luminescence units

What follows are binders tested against T1, SSB (assay: AtheNA, Ab 6.25 ug/ml).

Binder	AtheNA signal
B1	4 relative luminescence units
B2	6 relative luminescence units

These binders were tested against T11, Sm (Smith antigen) (assay: AtheNA, Ab 6.25 ug/ml).
T11 construct: Protein complex

Binder	AtheNA signal
B1	4 relative luminescence units
B2	5 relative luminescence units

What follows are binders tested against T12, Histones (assay: AtheNA, Ab 6.25 ug/ml).
T12 construct: Mixture of proteins

Binder	AtheNA signal
B1	9 relative luminescence units
B2	5 relative luminescence units

These binders were tested against T1, SSB (assay: ELISA, LogAUC grade).

Binder	binding result
B1	no binding
B2	no binding
B4	no binding

Each binder was assayed against T2, Scl-70 (assay: ELISA, LogAUC grade).

Binder	binding result
B1	no binding
B2	no binding
B4	no binding

These binders were tested against T3, Jo-1 (assay: ELISA, LogAUC grade).

Binder	binding result
B1	no binding
B2	no binding
B4	no binding
